# Data reported in IntAct's records for PubMed 36931259.
# B1: 14-3-3 protein sigma (Homo sapiens), P31947 (parent)
# chain: MERASLIQKAKLAEQAERYEDMAAFMKGAVEKGEELSCEERNLLSVAYKNVVGGQRAAWRVLSSIEQKSNEEGSEEKGPEVREYREKVETELQGVCDTVLGLLDSHLIKEAGDAESRVFYLKMKGDYYRYLAEVATGDDKKRIIDSARSAYQEAMDISKKEMPPTNPIRLGLALNFSVFHYEIANSPEEAISLAKTTFDEAMADLHTLSEDSYKDSTLIMQLLRDNLTLWTADNAGEEGGEAPQEPQS
# B2: 14-3-3 protein sigma (Homo sapiens), P31947 (parent)
# chain: B1 chain
# partner: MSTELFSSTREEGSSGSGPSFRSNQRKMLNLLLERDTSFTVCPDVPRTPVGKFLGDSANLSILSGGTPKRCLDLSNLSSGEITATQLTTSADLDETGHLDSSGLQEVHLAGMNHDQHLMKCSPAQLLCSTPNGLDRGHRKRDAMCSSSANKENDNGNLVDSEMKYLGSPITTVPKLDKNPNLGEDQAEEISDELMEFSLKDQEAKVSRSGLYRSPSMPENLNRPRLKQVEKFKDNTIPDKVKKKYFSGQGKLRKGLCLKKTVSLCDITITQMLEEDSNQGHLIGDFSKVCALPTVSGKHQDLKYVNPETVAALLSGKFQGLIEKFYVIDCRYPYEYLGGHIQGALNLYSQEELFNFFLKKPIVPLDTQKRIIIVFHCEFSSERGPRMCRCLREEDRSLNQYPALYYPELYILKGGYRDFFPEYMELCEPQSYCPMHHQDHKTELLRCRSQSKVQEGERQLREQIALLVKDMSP
# B3: 14-3-3 protein sigma (Homo sapiens), P31947 (parent)
# chain: B1 chain
# partner: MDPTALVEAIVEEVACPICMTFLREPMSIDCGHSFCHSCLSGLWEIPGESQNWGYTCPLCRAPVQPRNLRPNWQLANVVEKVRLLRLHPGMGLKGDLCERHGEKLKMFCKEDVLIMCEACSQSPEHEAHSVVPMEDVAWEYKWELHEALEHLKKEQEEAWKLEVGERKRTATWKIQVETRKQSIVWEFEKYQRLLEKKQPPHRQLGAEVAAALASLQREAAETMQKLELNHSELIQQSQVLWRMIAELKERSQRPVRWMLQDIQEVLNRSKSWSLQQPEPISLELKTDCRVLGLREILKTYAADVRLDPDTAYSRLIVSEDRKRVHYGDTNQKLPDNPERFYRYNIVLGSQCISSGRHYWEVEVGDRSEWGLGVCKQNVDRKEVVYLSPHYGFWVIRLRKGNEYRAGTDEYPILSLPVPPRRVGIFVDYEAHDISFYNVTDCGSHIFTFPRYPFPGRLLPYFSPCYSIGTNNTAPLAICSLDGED
# B4: Kinesin light chain 3 (Homo sapiens), Q6P597 (parent)
# chain: MSVQVAAPGSAGLGPERLSPEELVRQTRQVVQGLEALRAEHHGLAGHLAEALAGQGPAAGLEMLEEKQQVVSHSLEAIELGLGEAQVLLALSAHVGALEAEKQRLRSQARRLAQENVWLREELEETQRRLRASEESVAQLEEEKRHLEFLGQLRQYDPPAESQQSESPPRRDSLASLFPSEEEERKGPEAAGAAAAQQGGYEIPARLRTLHNLVIQYAGQGRYEVAVPLCRQALEDLERSSGHCHPDVATMLNILALVYRDQNKYKEATDLLHDALQIREQTLGPEHPAVAATLNNLAVLYGKRGRYREAEPLCQRALEIREKVLGADHPDVAKQLNNLALLCQNQGKFEDVERHYARALSIYEALGGPHDPNVAKTKNNLASAYLKQNKYQQAEELYKEILHKEDLPAPLGAPNTGTAGDAEQALRRSSSLSKIRESIRRGSEKLVSRLRGEAAAGAAGMKRAMSLNTLNVDAPRAPGTQFPSWHLDKAPRTLSASTQDLSPH
# partner: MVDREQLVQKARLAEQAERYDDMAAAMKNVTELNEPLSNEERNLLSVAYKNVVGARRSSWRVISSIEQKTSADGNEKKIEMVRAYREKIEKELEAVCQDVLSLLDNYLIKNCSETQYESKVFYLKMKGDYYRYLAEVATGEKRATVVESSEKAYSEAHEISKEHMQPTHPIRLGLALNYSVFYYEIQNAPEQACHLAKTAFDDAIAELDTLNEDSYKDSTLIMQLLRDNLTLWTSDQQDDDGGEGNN
# B5: 14-3-3 protein sigma (Homo sapiens), P31947 (parent)
# chain: B1 chain
# partner: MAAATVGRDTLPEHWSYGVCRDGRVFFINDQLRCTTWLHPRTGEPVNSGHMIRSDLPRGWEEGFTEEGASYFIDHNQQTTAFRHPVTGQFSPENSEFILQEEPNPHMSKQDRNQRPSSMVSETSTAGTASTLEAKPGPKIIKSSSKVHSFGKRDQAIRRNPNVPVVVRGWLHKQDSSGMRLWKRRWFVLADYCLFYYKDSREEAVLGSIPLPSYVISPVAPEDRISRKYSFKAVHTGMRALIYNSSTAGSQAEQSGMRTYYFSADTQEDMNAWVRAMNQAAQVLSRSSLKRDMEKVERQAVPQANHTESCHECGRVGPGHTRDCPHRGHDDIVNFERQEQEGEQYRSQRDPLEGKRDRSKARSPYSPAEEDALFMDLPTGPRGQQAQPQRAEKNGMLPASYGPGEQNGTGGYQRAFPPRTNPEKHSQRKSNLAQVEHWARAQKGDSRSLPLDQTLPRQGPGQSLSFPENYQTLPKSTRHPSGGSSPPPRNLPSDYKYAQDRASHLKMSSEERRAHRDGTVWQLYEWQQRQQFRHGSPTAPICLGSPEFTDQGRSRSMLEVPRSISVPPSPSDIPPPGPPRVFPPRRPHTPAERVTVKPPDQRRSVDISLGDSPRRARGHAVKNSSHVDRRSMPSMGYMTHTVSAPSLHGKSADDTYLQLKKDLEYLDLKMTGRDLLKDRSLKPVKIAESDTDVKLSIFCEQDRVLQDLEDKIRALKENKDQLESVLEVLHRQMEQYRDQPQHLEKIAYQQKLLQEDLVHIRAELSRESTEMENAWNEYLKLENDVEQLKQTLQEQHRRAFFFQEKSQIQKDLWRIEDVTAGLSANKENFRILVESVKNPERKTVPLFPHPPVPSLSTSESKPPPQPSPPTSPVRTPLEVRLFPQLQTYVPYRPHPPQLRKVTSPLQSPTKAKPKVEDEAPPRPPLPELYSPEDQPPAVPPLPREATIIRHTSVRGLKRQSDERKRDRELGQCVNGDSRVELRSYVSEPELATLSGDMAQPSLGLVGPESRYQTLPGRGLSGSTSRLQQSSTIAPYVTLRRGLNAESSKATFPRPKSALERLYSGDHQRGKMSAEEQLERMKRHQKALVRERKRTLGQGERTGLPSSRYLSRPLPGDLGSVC
# Variants of: B1
# Conditions: with gsk3a_human GSK3A
row,Variant,effect of a mutation on the interaction
1,K49D;R56D;V178D,decreasing interaction strength

# Variants of: B2
# Conditions: with mpip3_human CDC25C
row,Variant,effect of a mutation on the interaction
1,K49E;R56E;V178D,decreasing interaction strength

# Variants of: B3
# Conditions: with tri68_human TRIM68, Q6AZZ1
row,Variant,effect of a mutation on the interaction
1,K49E;R56E;V178D,decreasing interaction strength

# Variants of: B4
# Conditions: with 1433g_human YWHAG
row,Variant,effect of a mutation on the interaction
1,S431A;S466A;S497A,disrupting interaction strength

# Variants of: B5
# Conditions: with pkha7_human PLEKHA7, Q6IQ23
row,Variant,effect of a mutation on the interaction
1,K49E;R56E;V178D,decreasing interaction strength
